Among the data in patent US20100021474A1 (Genentech, published 2010) are Ki values, retold here.

Some results are limits rather than exact numbers.

Assay [1] has as its target T1, soluble form of HEPSIN comprising the entire extracellular domain (human HEPSIN Arg45-Leu417, His-tagged) (human, UniProt P05981 45-417).
T1 construct: range 45-417; Under reducing SDS-PAGE it runs as a 20 kDa A-chain and a 30 kDa B-chain; also called soluble HEPSIN; recombinant soluble HEPSIN; not shown: His tag
Briefly: Ki app, enzyme inhibition assay with chromogenic substrate S2366, fit to the tight binding inhibition equation. The method, then:
(§1) A soluble form of the bi-Kunitz inhibitor HAI-2 was used as a stop reagent for the pro-uPA activation assay. […] HAI-2 was incubated with 0.5 nM HEPSIN or 10 nM uPA for 30 min in Hepes buffer (20 mM Hepes, pH 7.5, 150 mM NaCl, 5 mM CaCl₂, 0.01% Triton X-100) at room temperature. The chromogenic substrates S2366 (for HEPSIN) or S2444 (for uPA) were added at a concentration corresponding to their respective Kₘ values, which were determined in separate experiments. After substrate addition, the increase in absorbance at 405 nm was measured on a kinetic microplate reader (Molecular Devices, Sunnyvale, Calif.). The Kᵢ^app values were determined by fitting the data to the equation for tight binding inhibition (22,23).

Assay [2] concerns the target T2, uPA (high molecular weight form) (UniProt P00749 21-431, limits assumed).
T2 construct: Bought reagent
Briefly: Ki app, enzyme inhibition assay with chromogenic substrate S2444, fit to the tight binding inhibition equation. As for the experimental part: as §1

T1 sequence (P05981 45-417 limits assumed): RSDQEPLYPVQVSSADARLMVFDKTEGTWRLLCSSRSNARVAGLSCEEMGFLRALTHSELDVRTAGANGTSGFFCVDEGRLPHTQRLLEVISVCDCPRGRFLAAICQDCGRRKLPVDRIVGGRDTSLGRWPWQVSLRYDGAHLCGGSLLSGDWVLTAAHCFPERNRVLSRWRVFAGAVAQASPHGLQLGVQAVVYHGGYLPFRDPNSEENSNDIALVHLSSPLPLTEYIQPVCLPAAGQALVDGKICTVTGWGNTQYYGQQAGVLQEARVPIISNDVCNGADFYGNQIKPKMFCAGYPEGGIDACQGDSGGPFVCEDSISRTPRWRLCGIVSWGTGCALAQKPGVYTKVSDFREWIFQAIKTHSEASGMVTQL

B1: soluble form of hepatocyte growth factor activator inhibitor-2 (HAI-2) (other, UniProt O43291 28-197, looked up)
chain: ADRERSIHDFCLVSKVVGRCRASMPRWWYNVTDGSCQLFVYGGCDGNSNNYLTKEECLKKCATVTENATGDLATSRNAADSSVPSAPRRQDSEDHSSDMFNYEEYCTANAVTGPCRASFPRWYFDVERNSCNNFIYGGCRGNKNSYRSEEACMLRCFRQQENPPLPLGSK
notes: Called a soluble form
B1: the Ki in assay [1] was 0.26 nM; in assay [2], over 1000 nM.
